Source: patent publication US20220340687A1

Molecular target: high affinity IgE receptor (FcεR1) (human) (UniProt P12319)
Experiment: flow cytometry of purified human pDCs, mean over all assayed donors

Sequence of high affinity IgE receptor (FcεR1) (human) (P12319 26-257): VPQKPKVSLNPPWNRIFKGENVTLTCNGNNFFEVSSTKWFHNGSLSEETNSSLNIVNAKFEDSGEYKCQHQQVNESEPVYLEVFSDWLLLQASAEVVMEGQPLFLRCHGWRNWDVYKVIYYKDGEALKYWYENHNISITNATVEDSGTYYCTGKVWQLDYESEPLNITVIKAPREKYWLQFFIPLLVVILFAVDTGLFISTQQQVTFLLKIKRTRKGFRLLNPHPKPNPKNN
Sequence of human immunoglobulin E (IgE) (P01854 other isoform, or with tags, fused parts or gaps): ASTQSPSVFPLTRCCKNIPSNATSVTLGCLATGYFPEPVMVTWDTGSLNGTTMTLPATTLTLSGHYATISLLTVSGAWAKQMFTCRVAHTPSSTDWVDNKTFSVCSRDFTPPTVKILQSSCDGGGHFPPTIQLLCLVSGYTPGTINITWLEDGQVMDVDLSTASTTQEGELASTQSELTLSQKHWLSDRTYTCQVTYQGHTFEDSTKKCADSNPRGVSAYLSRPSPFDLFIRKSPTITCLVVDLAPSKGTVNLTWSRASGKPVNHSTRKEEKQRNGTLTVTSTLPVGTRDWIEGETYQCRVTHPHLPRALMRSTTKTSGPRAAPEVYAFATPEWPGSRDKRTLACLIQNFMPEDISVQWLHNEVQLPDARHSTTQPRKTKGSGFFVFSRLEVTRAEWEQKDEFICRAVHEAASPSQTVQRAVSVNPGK

percentage of pDCs displaying IgE bound to FcεR1: 45.7%
Substance: human immunoglobulin E (IgE) (from UniProt P01854 1-428) (antibody)
